# Source: US20230265179A1 (TWIST BIOSCIENCE, published 2023)
# Residue numbers refer to the chain shown, from its start.
# T1: IL1RL2 over-expressed on Expi293 cells (UniProt Q9HB29 20-575, limits assumed)
# T1 construct: whole, on cells; Target of the flow cytometry assay; MFI ratio is over-expressing cells over parent cells
# T1 sequence (looked up): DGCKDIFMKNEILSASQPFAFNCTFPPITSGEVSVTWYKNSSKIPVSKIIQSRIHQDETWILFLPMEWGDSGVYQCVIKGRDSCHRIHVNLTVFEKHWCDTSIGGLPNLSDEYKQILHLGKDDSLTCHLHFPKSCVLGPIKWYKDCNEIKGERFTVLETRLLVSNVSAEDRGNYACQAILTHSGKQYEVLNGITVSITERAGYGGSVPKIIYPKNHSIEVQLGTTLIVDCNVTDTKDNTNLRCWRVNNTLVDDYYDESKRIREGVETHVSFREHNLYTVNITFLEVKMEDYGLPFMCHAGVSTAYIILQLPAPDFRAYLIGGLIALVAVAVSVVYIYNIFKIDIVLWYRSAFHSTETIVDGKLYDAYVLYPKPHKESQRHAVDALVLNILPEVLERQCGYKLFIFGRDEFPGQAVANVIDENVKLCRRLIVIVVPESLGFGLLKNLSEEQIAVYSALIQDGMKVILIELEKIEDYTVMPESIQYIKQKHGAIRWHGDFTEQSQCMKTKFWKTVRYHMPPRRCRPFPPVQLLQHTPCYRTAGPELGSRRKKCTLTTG
# T2: IL1RL2 (UniProt Q9HB29 20-335, limits assumed)
# T2 construct: Soluble analyte of the SPR runs
# T2 sequence (looked up): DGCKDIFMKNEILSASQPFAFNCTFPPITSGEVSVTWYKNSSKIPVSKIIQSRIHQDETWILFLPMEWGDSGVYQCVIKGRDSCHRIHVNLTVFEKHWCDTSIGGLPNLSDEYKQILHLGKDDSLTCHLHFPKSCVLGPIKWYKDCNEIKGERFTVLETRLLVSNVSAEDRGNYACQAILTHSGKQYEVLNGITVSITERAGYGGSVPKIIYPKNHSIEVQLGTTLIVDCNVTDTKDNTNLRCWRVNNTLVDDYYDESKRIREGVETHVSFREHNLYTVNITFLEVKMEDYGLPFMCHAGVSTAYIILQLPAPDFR
# B1: IL1RL2-24 (VHH)
# VHH: EVQLVESGGGLVQPGGSLRLSCAASGRTFSTYDMGWFRQAPGKERELVASIVWIGGRTYYADSVKGRFTISADNSKNTAYLQMNSLKPEDTAVYYCADVNGDWGQGTLVTVSS
# notes: VHH-Fc based on IgG2 Fc
# B2: IL1RL2-30 (VHH)
# VHH: EVQLVESGGGLVQPGGSLRLSCAASGGTLRGFDIGWFRQAPGKEREFVAAVTWSGGSTNYADSVKGRFTISADNSKNTAYLQMNSLKPEDTAVYYCADVNGDWGQGTLVTVSS
# notes: VHH-Fc based on IgG2 Fc
# B3: TSLP-18 (VHH)
# VHH: EVQLVESGGGLVQPGGSLRLSCAASGNIFTRNIMCWFRQAPGKEREGVSCISTGDGSTYYADSVKGRFTISADNSKNTAYLQMNSLKPEDTAVYYCAADSETSGNWVWGQGTLVTVSS
# notes: VHH-Fc (IgG2 Fc); not shown: IgG2 Fc of the VHH-Fc format
# B4: TSLP-120 (antibody, V domains shown)
# VH: QVQLVQSGAEVKKPGSSVKVSCKASGGTFSTYAISWVRQAPGQGLEWMGGIISINYAQKFQGRVTITADESTSTAYMELSSLRSEDTAVYYCAWGAKYALDSWGQGTLVTVSS
# VL: DIQMTQSPSSLSASVGDRVTITCRASQTIGTYLNWYQQKPGKAPKLLIYSASSLQSGVPSRFSGSGSGTDFTLTISSLQPEDFATYYCQQTDGNPPTFGQGTKVEIK
# B5: TSLP-15 (VHH)
# VHH: EVQLVESGGGLVQPGGSLRLSCAASGFILDDYAMGWFRQAPGKEREFVATIAGGYTYYADSVKGRFTISADNSKNTAYLQMNSLKPEDTAVYYCPVFDGYTRIHWGQGTLVTVSS
# notes: as for B3
# B6: TSLP-11 (VHH)
# VHH: EVQLVESGGGLVQPGGSLRLSCAASGFTFDDSDMGWFRQAPGKEREFVGAISWSGDSTYYKYYADSVKGRFTISADNSKNTAYLQMNSLKPEDTAVYYCANQYGWGQGTLVTVSS
# notes: as for B3
# B7: TSLP-22 (VHH)
# VHH: EVQLVESGGGLVQPGGSLRLSCAASGRTFRSYVMGWFRQAPGKERELVSAIFSDGSTLYADSVKGRFTISADNSKNTAYLQMNSLKPEDTAVYYCAREDSSSGWFDYWGQGTLVTVSS
# notes: as for B3
# B8: TSLP-21 (VHH)
# VHH: B7 VHH with R27N, T28I, R30S, S31R, V33I, R97K, E98G, D99G, S100Y
# notes: as for B3
# B9: TSLP-26 (VHH)
# VHH: B7 VHH with R27L, R30S, V33I, E98D, S100Y, S101G, S102G, G103N, W104F
# notes: as for B3
# B10: TSLP-3 (VHH)
# VHH: EVQLVESGGGLVQPGGSLRLSCAASGRIFSTYFMGWFRQAPGKERELVSAIFSDGSTYYADSVKGRFTISADNSKNTAYLQMNSLKPEDTAVYYCALDLSTVRWGQGTLVTVSS
# notes: as for B3
# B11: TSLP-23 (VHH)
# VHH: B10 VHH
# notes: as for B3
# B12: TSLP-27 (VHH)
# VHH: EVQLVESGGGLVQPGGSLRLSCAASGSTFSDRAMGWFRQAPGKERELVSAIFSDGSTLYADSVKGRFTISADNSKNTAYLQMNSLKPEDTAVYYCASDVGMDVWGQGTLVTVSS
# notes: as for B3
# B13: TSLP-35 (VHH)
# VHH: B10 VHH with R27C, L99W, S100N, T101L, V102N
# notes: as for B3
# B14: TSLP-12 (VHH)
# VHH: B10 VHH with R27F, T31S, F33W, L97I, L99W, S100Y, T101L, V102N, R103S
# notes: as for B3
# B15: TSLP-14 (VHH)
# VHH: B10 VHH with R27S, T31S, F33W, L97K, L99Y, S100F, T101G, V102T, R103G
# notes: as for B3
# B16: TSLP-33 (VHH)
# VHH: EVQLVESGGGLVQPGGSLRLSCAASGFSLDYYGMGWFRQAPGKEREFVAAIHWNGDSTLYADSVKGRFTIIADNSKNTAYLQMNSLKPEDTAVYYCARGFSGWFPFDYWGQGTLVTVSS
# notes: as for B3
# B17: TSLP-24 (VHH)
# VHH: EVQLVESGGGLVQPGGSLRLSCAASGGIFSINDIGWFRQAPGKEREFVAALSWIIGSGVYTYYADSVKGRFTISADNSKNTAYLQMNSLKPEDTAVYYCANEYGWGQGTLVTVSS
# notes: as for B3
# B18: TSLP-41 (VHH)
# VHH: EVQLVESGGGLVQPGGSLRLSCAASGRTFSAHSVYTMGWFRQAPGKEREWVSAIFSDGDTYYADSVKGRFTISADNSKNTAYLQMNSLKPEDTAVYYCAIDEGMDYDGNFYDWGQGTLVTVSS
# notes: as for B3
# B19: TSLP-20 (VHH)
# VHH: EVQLVESGGGLVQPGGSLRLSCAASGFKLGYYAMGWFRQAPGKEREGVATIAGGTTYYADSVKGRFTISADNSKNTAYLQMNSLKPEDTAVYYCAAIGWRWGQGTLVTVSS
# notes: as for B3
# B20: TSLP-28 (VHH)
# VHH: EVQLVESGGGLVQPGGSLRLSCAASGFTFDDYEMGWFRQAPGKEREFVGSIGCDGSTLYADSVKGRFTISADNSKNTAYLQMNSLKPEDTAVYYCTTDCDDHCGWGQGTLVTVSS
# notes: as for B3
# B21: TSLP-31 (VHH)
# VHH: EVQLVESGGGLVQPGGSLRLSCAASGNIFANNIMGWFRQAPGKERELVSAIFSDGSTYYADSVKGRFTISADNSKNTAYLQMNSLKPEDTAVYYCARDDIVGAWSLDCWGQGPLMTVSS
# notes: as for B3
# B22: TSLP-34 (VHH)
# VHH: B21 VHH with N27H, D99A, W104A, C108Y, P113T, M115V
# notes: as for B3
# B23: TSLP-6 (VHH)
# VHH: EVQLVESGGGLVQPGGSLRLSCAASGMTFSSYVMGWFRQAPGKEREFVGEIILSKGFTYYADSVKGRFTISADNSKNTAYLQMNSLKPEDTAVYYCASGPGYYDSSAYYLYAFDIWGQGTLVTVSS
# notes: as for B3
# B24: TSLP-7 (VHH)
# VHH: EVQLVESGGGLVQPGGSLRLSCAASGLTFGTHVMGWFRQAPGKERELVTAINPAALTTYYADSVKGRFTISADNSKNTAYLQMNSLKPEDTAVYYCARDFWSAGDSWGQGTLVTVSS
# notes: as for B3
# Target: T1, IL1RL2 over-expressed on Expi293 cells
# Assay: flow cytometry, over-expressing Expi293 vs parent cells, 100 nM antibody;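 also: ratio is mean fluorescence intensity on over-expressing Expi293 cells divided by that measured on parental Expi293 cells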
# Experimental: (§1) All incubations and washes were in buffer containing PBS+1% BSA. MFI Ratio is defined by the mean fluorescence intensity (MFI) of the cytokine over-expressing Expi293 cell over the Expi293 parent cell. […] EC50 was calculated in GraphPad Prism.
row,100 nM FACS (MFI Ratio),Binder
1,18.1,B1
2,10.2,B2

# Target: T2, IL1RL2
# Assay: SPR (Carterra LSA), antibody immobilised, 1:1 model
# Experimental: (§2) SPR experiments were performed on a Carterra LSA SPR biosensor equipped with a HC30M chip at 25° C. in HBS-TE. Antibodies were diluted to 10 μg/mL and amine-coupled to the sensor chip by EDC/NHS activation, followed by ethanolamine HCl quenching. Increasing concentrations of analyte were flowed over the sensor chip in HBS-TE with 0.5 mg/mL BSA with 5-minute association and 15-minute dissociation. Following each injection cycle the surface was regenerated with 2× 30-second injections of IgG elution buffer (Thermo). Data were analyzed in Carterra's Kinetics Tool software with 1:1 binding model.
Kd [nM],koff [s⁻¹],kon [M⁻¹ s⁻¹],Binder
≤ 0.103,≤ 1e-05,97200,B1
2.14,0.000194,90800,B2

# Target: T3, TSLP on over-expressing Expi293 cells (UniProt Q969D9 29-159, limits assumed)
# T3 construct: whole, on cells; Target of the flow cytometry assay; also called cytokine over-expressing Expi293 cells
# Assay: flow cytometry, 100 nM, TSLP over-expressing Expi293 over parent cells
# Experimental: as §1
row,100 nM (MFI Ratio) [MFI ratio],Binder
1,5.1,B3
2,21.2,B4
3,1.5,B5
4,157,B6
5,90.4,B7
6,0.7,B8
7,313,B9
8,80.1,B10
9,226,B11
10,0.6,B12
11,108,B13
12,76.2,B14
13,20.3,B15
14,21,B16
15,1.3,B17
16,12.3,B18
17,2.5,B19
18,0.7,B20
19,18.4,B21
20,16.5,B22
21,178,B23
22,1.6,B24

# Target: T4, TSLP (UniProt Q969D9 29-159)
# T4 construct: Soluble analyte of the SPR assay
# Assay: SPR, Carterra LSA, antibody amine-coupled, 1:1 model
# Experimental: as §2
Kd [nM],koff [s⁻¹],kon [M⁻¹ s⁻¹],Binder
22.3,0.00178,79700,B3
0.223,0.000181,809000,B4
9.67,0.000433,44700,B6
12.1,0.00106,88200,B7
10.6,0.00113,106000,B8
5.09,0.000228,44700,B9
19.1,0.00114,59900,B10
19.1,0.00131,68500,B11
20,0.00145,72600,B13
13.9,0.00137,98700,B14
31.4,0.0016,51000,B15
10.2,0.000445,43600,B17
10.8,0.00177,164000,B18
27.7,0.00209,75300,B19
19.4,0.000672,34700,B23
5.12,0.000351,68500,B24

# Target: T3, TSLP on over-expressing Expi293 cells
# Assay: flow cytometry titration on TSLP over-expressing Expi293 cells
# Experimental: as §1
row,EC50 [nM],Binder
1,0.66,B7
2,3.37,B9
3,0.37,B10
4,0.12,B11
5,0.28,B13
6,0.5,B14
7,0.18,B15
